Results on four molecules are retold here after US10718784B2, “Mitochondrial preproteins as markers for Alzheimer's disease” (Albert-Ludwigs-Universität Freiburg, priority 2014, dated 2020).

For one experiment, the target named is T1, Cym1 (Saccharomyces cerevisiae, UniProt P32898).
T1 construct: endogenous in cells; host or cells: soluble extract of wild-type S. cerevisiae mitochondria (cym1Δ extract as control)
T1 sequence (P32898 17-989): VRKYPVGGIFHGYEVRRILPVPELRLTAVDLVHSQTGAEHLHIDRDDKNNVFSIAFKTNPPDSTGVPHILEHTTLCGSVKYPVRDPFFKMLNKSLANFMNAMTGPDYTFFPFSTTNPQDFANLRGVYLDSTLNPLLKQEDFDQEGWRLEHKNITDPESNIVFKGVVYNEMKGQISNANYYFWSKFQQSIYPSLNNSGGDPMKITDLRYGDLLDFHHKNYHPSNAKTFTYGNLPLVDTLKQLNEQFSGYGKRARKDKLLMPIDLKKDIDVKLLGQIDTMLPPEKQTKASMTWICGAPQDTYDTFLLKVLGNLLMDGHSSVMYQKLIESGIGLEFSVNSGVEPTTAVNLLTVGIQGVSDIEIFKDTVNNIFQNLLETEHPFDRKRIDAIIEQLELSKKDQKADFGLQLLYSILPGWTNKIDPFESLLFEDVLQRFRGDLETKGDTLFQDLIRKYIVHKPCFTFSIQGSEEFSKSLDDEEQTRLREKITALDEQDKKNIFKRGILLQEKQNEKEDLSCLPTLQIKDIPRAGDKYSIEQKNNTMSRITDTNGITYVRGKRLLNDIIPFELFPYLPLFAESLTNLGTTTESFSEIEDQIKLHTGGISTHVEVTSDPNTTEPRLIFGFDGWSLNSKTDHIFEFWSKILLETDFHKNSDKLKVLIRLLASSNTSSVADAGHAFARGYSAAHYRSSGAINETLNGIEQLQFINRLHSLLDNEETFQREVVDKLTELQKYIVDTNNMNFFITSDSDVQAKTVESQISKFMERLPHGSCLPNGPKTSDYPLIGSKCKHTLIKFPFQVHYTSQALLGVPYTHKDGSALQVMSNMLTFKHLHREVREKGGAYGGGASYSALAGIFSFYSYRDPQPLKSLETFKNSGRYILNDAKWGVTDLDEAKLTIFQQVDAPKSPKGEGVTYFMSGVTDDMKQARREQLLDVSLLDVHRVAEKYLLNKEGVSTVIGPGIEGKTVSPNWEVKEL
In words: Peptide degradation assay in soluble mitochondrial extracts. In kind it is biochemical, yeast. The method, then:
(§1) Isolated mitochondria from yeast strains grown under respiratory conditions were washed with SEM buffer, re-isolated and resuspended in reaction buffer (250 mM sucrose, 10 mM MOPS/KOH, pH 7.2, 80 mM KCl, 5 mM MgCl2, 5 mM KH2PO4) to a concentration of 3 μg/μl. Mitochondria were subjected to sonication (five times 30 s with 30 s breaks on ice, Sonifier250, Branson) followed by centrifugation at 100,000×g for 45 min at 4° C. The obtained supernatant was used for processing and degradation experiments. 0.5 μl of radiolabelled precursor protein and/or various peptides in different concentrations were added to 9 μl of yeast soluble mitochondrial extracts. Reactions were stopped by addition of 4× Laemmli buffer (8% (w/v) SDS, 0.08% (w/v) bromophenol blue, 40% (v/v) glycerol, 240 mM Tris/HCl, pH 6.8) containing 5% (v/v) β-mercaptoethanol and analyzed by SDS-PAGE followed by autoradiography and immunodecoration. Radiolabelled precursor proteins were synthesized with the transcription/translation rabbit reticulate lysate system (Promega) in the presence of ^35S-methionine. Chemical amounts of Cym1 and control protein (Oct1) were synthesized in vitro using the RTS wheat germ system (5 PRIME). 0.5 μl of cell-free translation product was used in the processing assays.

For another experiment, the target named is T2, Purified yeast MPP (Saccharomyces cerevisiae, UniProt P10507+P11914).
T2 construct: poly-histidine (N); made in house; host or cells: E. coli BL21, plasmid pVG18
In words: MPP activity assay: processing of [35S]F1β precursor by purified MPP. Format: biochemical, S. cerevisiae. Conditions: radiolabelled F1β precursor, increasing peptide concentrations. The method, then:
E. coli BL21 cells were transformed with plasmid pVG18 (32) that enables the transcription of a single mRNA encoding both β- (with N-terminal poly-histidine tag) and α-MPP subunits (Mas1 and Mas2) from S. cerevisiae. Cell cultures were grown in LB medium (10 g/l tryptone, 5 g/l yeast extract, 10 g/l NaCl) containing 100 μg/ml ampicillin at 37° C. to an OD600 of 0.6. Expression was induced by addition of 1 mM IPTG (Isopropyl β-D-1-thiogalactopyranoside, Formedium) for 4 h. Cells were harvested and snap-frozen in liquid nitrogen. Pellets were resuspended in binding buffer (20 mM Na3PO4, 200 mM NaCl, 20 mM imidazole, pH 7.4) containing 1 mg/ml lysozyme (Sigma) and 10 μg/ml DNaseI (Sigma) and incubated for 1 h at 4° C. for cell lysis. The cell extract was centrifuged at 4000×g to remove unbroken cells. The supernatant was further centrifuged at 100,000×g for 30 min at 4° C. The obtained supernatant was incubated with Ni-NTA resin (Qiagen) for 3 h at 4° C. The resin was washed four times with binding buffer. Bound proteins were eluted with Elution buffer (20 mM Na3PO4, 200 mM NaCl, 200 mM imidazole, pH 7.4). […]
Purified yeast MPP (0.15 μg protein) was incubated in processing buffer (10 mM HEPES/KOH, pH 7.4, 0.1 mM MnCl2, 1 mM DTT, 0.1 mg/ml BSA) for 15 min at 30° C. […] The samples were analyzed by SDS-PAGE followed by autoradiography. Bands were quantified using the Multi Gauge software (Fuji Film). […]

The next experiment concerns the target T3, MPP (Saccharomyces cerevisiae, UniProt P10507+P11914).
T3 construct: endogenous in cells; host or cells: soluble extract of mitochondria isolated from S. cerevisiae strains (wild-type, cym1Δ)
T3 sequence (P10507 21-462): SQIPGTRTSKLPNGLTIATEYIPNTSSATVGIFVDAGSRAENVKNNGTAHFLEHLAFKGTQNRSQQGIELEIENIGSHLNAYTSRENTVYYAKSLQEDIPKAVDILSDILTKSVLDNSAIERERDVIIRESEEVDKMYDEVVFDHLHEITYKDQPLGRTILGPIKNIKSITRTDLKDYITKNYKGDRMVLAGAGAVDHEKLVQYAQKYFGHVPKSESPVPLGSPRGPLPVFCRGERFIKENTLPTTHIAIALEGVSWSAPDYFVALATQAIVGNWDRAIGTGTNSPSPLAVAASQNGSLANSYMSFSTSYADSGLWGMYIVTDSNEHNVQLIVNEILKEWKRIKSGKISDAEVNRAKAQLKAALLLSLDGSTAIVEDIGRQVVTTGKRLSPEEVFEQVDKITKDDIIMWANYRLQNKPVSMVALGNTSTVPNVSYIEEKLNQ
T3 sequence (P11914 14-482): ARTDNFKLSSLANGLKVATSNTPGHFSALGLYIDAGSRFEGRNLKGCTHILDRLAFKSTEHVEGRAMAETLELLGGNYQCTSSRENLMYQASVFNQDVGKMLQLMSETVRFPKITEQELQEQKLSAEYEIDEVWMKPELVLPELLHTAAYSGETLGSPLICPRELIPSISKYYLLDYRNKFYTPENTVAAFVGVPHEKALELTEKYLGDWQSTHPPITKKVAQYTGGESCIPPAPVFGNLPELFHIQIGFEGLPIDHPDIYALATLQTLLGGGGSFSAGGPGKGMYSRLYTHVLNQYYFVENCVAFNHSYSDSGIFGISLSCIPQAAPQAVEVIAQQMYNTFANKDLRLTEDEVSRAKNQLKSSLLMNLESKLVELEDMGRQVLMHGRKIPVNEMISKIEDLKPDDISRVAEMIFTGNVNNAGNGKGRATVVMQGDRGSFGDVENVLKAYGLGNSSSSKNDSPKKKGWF
As to the kind of experiment: In vitro processing of [35S]Sod2 precursor in yeast soluble mitochondrial extracts. Format: biochemical. As to the method:
as §1

A further experiment concerns the target T4, Oct1 (Saccharomyces cerevisiae, UniProt P35999).
T4 construct: endogenous in cells; host or cells: soluble extract of wild-type and cym1Δ S. cerevisiae mitochondria
T4 sequence (P35999 38-772): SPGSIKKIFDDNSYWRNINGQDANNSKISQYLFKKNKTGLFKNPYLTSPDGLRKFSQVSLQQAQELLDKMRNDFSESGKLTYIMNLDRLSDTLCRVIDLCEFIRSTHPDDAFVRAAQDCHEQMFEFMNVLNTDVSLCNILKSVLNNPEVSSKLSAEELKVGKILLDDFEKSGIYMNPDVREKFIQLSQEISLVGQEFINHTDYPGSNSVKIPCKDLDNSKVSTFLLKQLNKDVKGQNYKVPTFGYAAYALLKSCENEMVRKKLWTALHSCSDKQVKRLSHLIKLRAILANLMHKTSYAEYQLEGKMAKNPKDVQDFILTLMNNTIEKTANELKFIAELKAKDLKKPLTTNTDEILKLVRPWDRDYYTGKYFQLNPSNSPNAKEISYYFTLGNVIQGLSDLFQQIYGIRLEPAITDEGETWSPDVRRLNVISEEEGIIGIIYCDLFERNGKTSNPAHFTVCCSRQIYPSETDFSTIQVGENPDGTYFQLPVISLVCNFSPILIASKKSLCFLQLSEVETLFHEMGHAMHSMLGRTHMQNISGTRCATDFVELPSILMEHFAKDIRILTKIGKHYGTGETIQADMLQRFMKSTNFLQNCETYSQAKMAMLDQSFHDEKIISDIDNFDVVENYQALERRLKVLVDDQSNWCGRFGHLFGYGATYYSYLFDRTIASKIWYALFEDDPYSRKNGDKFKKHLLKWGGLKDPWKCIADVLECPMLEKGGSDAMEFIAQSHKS
As to the kind of experiment: In vitro processing of [35S]Cox4 precursor in yeast mitochondrial extract in the presence of octapeptides. In kind it is biochemical. Particulars: cym1Δ mitochondrial extract. The method, then: as §1

For “Aβ^scrambled: scrambled Aβ peptide KVKGLIDGDHIGDLVYEFMDSNSAIFREGVGAGHVHVAQVEF (SEQ ID No.: 19)”, in the experiment with Cym1 (WT soluble mitochondrial extract, 10 μM Cox4 presequence peptide in each reaction), the “Effect on Cox4 presequence peptide degradation” value was “not”.

Consider “Cox4^preseq.: typical presequence peptide MLSLRQSIRFFKPATRTLCSSRYLL (SEQ ID No.: 15)”, for which, in the experiment with Purified yeast MPP, the “Processing activity of purified MPP on F1β precursor in the presence of peptide” value is given as “able to inhibit purified MPP”. The “Degradation of the peptide in wild-type mitochondrial extract” value with Cym1 (wild-type (WT) extract, peptide 10 μM) is given as “Rapid degradation”. The “In vitro processing of radiolabelled Sod2 precursor by MPP in the presence of presequence peptide” value with MPP (cym1Δ mitochondrial extract (absence of Cym1), 10 μM Cox4 presequence peptide) was “efficiently blocked”. On to “octapeptides: octapeptide derived from the Oct1 substrate Sdh1, FTSSALVR (SEQ ID No.: 16), EZ Biolab”, for which the “Processing activity of purified MPP on F1β precursor in the presence of peptide” value in the experiment with Purified yeast MPP is on record as “not affected”. In addition, in the experiment with Oct1, the “Oct1-dependent processing step of Cox4 precursor in the presence of octapeptides” value is listed as “specific impairment of the Oct1-dependent processing step”.

B1: cell-free translated Cym1 protein: yeast PreP homolog Cym1 synthesized in vitro using the RTS wheat germ system (protein)
chain: MLRFQRFASSYAQAQAVRKYPVGGIFHGYEVRRILPVPELRLTAVDLVHSQTGAEHLHIDRDDKNNVFSIAFKTNPPDSTGVPHILEHTTLCGSVKYPVRDPFFKMLNKSLANFMNAMTGPDYTFFPFSTTNPQDFANLRGVYLDSTLNPLLKQEDFDQEGWRLEHKNITDPESNIVFKGVVYNEMKGQISNANYYFWSKFQQSIYPSLNNSGGDPMKITDLRYGDLLDFHHKNYHPSNAKTFTYGNLPLVDTLKQLNEQFSGYGKRARKDKLLMPIDLKKDIDVKLLGQIDTMLPPEKQTKASMTWICGAPQDTYDTFLLKVLGNLLMDGHSSVMYQKLIESGIGLEFSVNSGVEPTTAVNLLTVGIQGVSDIEIFKDTVNNIFQNLLETEHPFDRKRIDAIIEQLELSKKDQKADFGLQLLYSILPGWTNKIDPFESLLFEDVLQRFRGDLETKGDTLFQDLIRKYIVHKPCFTFSIQGSEEFSKSLDDEEQTRLREKITALDEQDKKNIFKRGILLQEKQNEKEDLSCLPTLQIKDIPRAGDKYSIEQKNNTMSRITDTNGITYVRGKRLLNDIIPFELFPYLPLFAESLTNLGTTTESFSEIEDQIKLHTGGISTHVEVTSDPNTTEPRLIFGFDGWSLNSKTDHIFEFWSKILLETDFHKNSDKLKVLIRLLASSNTSSVADAGHAFARGYSAAHYRSSGAINETLNGIEQLQFINRLHSLLDNEETFQREVVDKLTELQKYIVDTNNMNFFITSDSDVQAKTVESQISKFMERLPHGSCLPNGPKTSDYPLIGSKCKHTLIKFPFQVHYTSQALLGVPYTHKDGSALQVMSNMLTFKHLHREVREKGGAYGGGASYSALAGIFSFYSYRDPQPLKSLETFKNSGRYILNDAKWGVTDLDEAKLTIFQQVDAPKSPKGEGVTYFMSGVTDDMKQARREQLLDVSLLDVHRVAEKYLLNKEGVSTVIGPGIEGKTVSPNWEVKEL
As to B1, in the experiment with MPP (cym1Δ mitochondrial extract), the “MPP processing activity (Sod2 precursor) after addition of Cym1 protein” value is listed as “could be restored”.
